Measured values from the nanobody polyreactivity screen of Harvey et al. (2022).

Assay: yeast display, Sf9 membrane polyspecificity reagent, FACS + sequencing; frameworks hold sequencing errors
Method in brief: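 Genes from sorted yeast were amplified by colony PCR, read by MiSeq 2 × 250 sequencing and filtered on CDR length. These cells carried a synthetic nanobody library in Saccharomyces cerevisiae BJ5465 and were sorted by FACS into low and high (top ~1%) gates on anti-HA and streptavidin fluorescence. Polyreactivity is labelled according to the gate of origin.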

For “QVQLVESGGGLVQAGGSLRLSCAASGVIFYFNALGWYRQAPGKERELVAAISGGDNTYYADSVKGRFTISRDNAKNTVYLQMNSLKPEDTAVYYCAAKYRYGQNGYYLYGYWGQGTQVTVSS”, the “polyreactivity (PSR sort gate)” value was “low polyreactivity”.

In the case of “QVQLVESGGGLVQAGGSLRLSCAASGSTFVYMGGYRQAPGKEREFVAITFSGGRTYADSVKGRFTISRDNAKNTVYLQMNSLKPEDTAVYYCNKGDDFYSTYSYDYWGQGTQVTVSS”, the “polyreactivity (PSR sort gate)” value is reported as “low polyreactivity”.

For “QVQLVESGGGLVQAGGSLRLSCAASGSTFLINAMGWYRQAPGKERELVAAITGRGGSTYYADSVKGRFTISRDNAKNTVYLQMNSLKPEDTAVYYCNAERLGTGYRYDYWGQGTQVTVSS”, the “polyreactivity (PSR sort gate)” value was “high polyreactivity”.

In the case of “QDPLVESGGGLVQAGGSLRLSCAASGRLFYRNPMGWYRQAPGKERELVAAISSSGGGTYADSVKGRFTISRDNAKNTVYLQMNSLKPEDTAVYYCAAGPFSYSHYGRKFYYWGQGTQVTVSS”, the “polyreactivity (PSR sort gate)” value is reported as “high polyreactivity”.

For “QVQLVESGGGLVQAGGSLRLSCAASGRIFGVYAMGWYRQSPGKERELVAPISRSGGRTYYADSVKGRFTISRDNAKNSDYLQMNSLKPEDTAVYYCNVVRWYYHPPLTGSRFDYWGQGTQVTVSS”, the “polyreactivity (PSR sort gate)” value was “high polyreactivity”.

With “QVQLVESGGGLVQAGGSLRLSCAASGFTLYVNAMGWYRHAPGKERELVAAISRGTTTYYADSVKGRFTISRDNAKNTVYLQMNSLKPEDTAVYYCAGETGHPYEEYDYWGQGTQVTVSS” the “polyreactivity (PSR sort gate)” value was “high polyreactivity”.

With “QVQLVESGGGLVQAGGSLRLSCAASGIIFYRYAMGWYRQAPGKEREFVAAISWSGGSTTYADSVKGRFTISRDNAKNTVYLQMNSLKPEDTAVYYCNADRIYWSLWGPAYDYWGQGTQVTVSS” the “polyreactivity (PSR sort gate)” value was “high polyreactivity”.

In the case of “QVQLVESGGGLVQAGGSLRLSCAASGSIFGFNAMGWYRQAPGKERELVAAINNGGSTNYADSVKGRFTISRDNAKNTVYLQMNSLKPEDTAVYYCAAVGGWRWSNQDYRYPYYYWGQGTQVTVSS”, the “polyreactivity (PSR sort gate)” value is reported as “high polyreactivity”.

With “QVPLQVSGGYLVQAGGSVRLSCAASGTIYGLTALGWYRQAPGKEREFVAAITDGGNTNYADSVKGRFTISRDNAKNTVYLQMLSLKPEDTAVYYCAVLFSDDAYYAYWGQGTQVTVSS” the “polyreactivity (PSR sort gate)” value was “low polyreactivity”.

For “QVQLVESGGGLVQAGGSLRLSCAASGIIFTGYTMGWYRQAPGKERELVAAITWRGGCTYYADSVKGRFTISRDNAKNTVYLQMNSLKPEDTAVYYCAAEGWYSWDDDYWGQGTQVTVSS”, the “polyreactivity (PSR sort gate)” value was “low polyreactivity”.

With “QVQLVESGGGLFQEGGSLRLSCAPSGSTLVFYAMGWYRHAPGKERELVAAITRSGGSTYYADSVKGRFTISRDNAKNTVYLQRNSLKPEDTAVYNCAADERYINERVSWGQGTQVTVSS” the “polyreactivity (PSR sort gate)” value was “low polyreactivity”.

For “QVQLVESGGGLVQAGGSLRLSCAASGSTFGWYTMGWYRQAPGKERELVAAINYSGGSTYYADSVKGRFTISRDNAKNTVYLQMNSLKPEDTAVYYCATDQSTYLYGYYYWGQGTQVTVSS”, the “polyreactivity (PSR sort gate)” value was “low polyreactivity”.

With “QVQLVESGGGLVQAGGSLRLRCAASGRTFLPYAMGWSRQAPGKVRVLVAAIDSSGTSTYYADSVKGRFTISRDNAKNTVYLQMNSLKPEDTAVYYCAKAWPDHWYSRYDYWGQGTQVTVSS” the “polyreactivity (PSR sort gate)” value was “low polyreactivity”.

In the case of “QVQLVESGGGLLQAGGSLRLSCAASGFTISYNVMGWYRQAPGKERELVAAITYSGGSTYYADSVKGRFTISRDNAKNTVYLQMNSLKPEDTAVYYCAAENGMPMDYWGQGTQVTVSS”, the “polyreactivity (PSR sort gate)” value is reported as “low polyreactivity”.

In the case of “QVQLVESGGGLVQAGGSLRLSCAASGSTFQLYAMGWYRQAPGKEREFVAAIRGRGGNTYADSVKGRFTISRDNAKNTVFLQMNSLKPEDTAVYYCAAPLLRDLRSPYSYNYWGQGTQVTVSS”, the “polyreactivity (PSR sort gate)” value is reported as “low polyreactivity”.

In the case of “QVQLVESGGGLVQAGGSLRLSCAASGSTFDIYVMGWYRQAPGKEREFVAAITTTTGRTNYADSVKGRFTISRDYAKNTVYLQMNSLKPEDTAVYYCAAYVTWGKLWYGYWGQGTQVTVSS”, the “polyreactivity (PSR sort gate)” value is reported as “high polyreactivity”.

For “QVQLVESGGGLVQAGGSLRLSCAASGRTFTTNAMGWYSQARGKERELVAAINSGGSTNYADSVKGRFTISRDNAKNTVYLQMNRLKPEDTAVYYCAKRQRDYSSVFEVDYWGQGTQVTVSS”, the “polyreactivity (PSR sort gate)” value was “low polyreactivity”.

With “QVQLVESGGGLVQAGGSLRLSWAASGRIFYGYTMGWYRQAPGKERELVASITIRGSRTYYADSVKGRCTISRDNAKNTVYLQINSLKPEDTAVYYCAADFVPARTVHRYDYWGQGTQVTVSS” the “polyreactivity (PSR sort gate)” value was “low polyreactivity”.

In the case of “QVQLVESGGGLVQAGGSLSLSCAASGRIFYRNAMGWYRQAPGKERELVAGITRGGSTNYADSVKGRFTISRDNAKNTVYLQMNSLKPEDTAVYYCAKAIPAKFYSEAGYDYWGQGTQVTVSS”, the “polyreactivity (PSR sort gate)” value is reported as “low polyreactivity”.

In the case of “QVQLVESGGGLVQAGGSLRLSCAASGSTFWATAMGWYRQAPGKERELVAAITTSGASTNYADSVKGRFTISRDNAKNTVYLQMNSLKPEDTAVYYCAADYDSYYWYNYWGQGTQVTVSS”, the “polyreactivity (PSR sort gate)” value is reported as “low polyreactivity”.

With “QVQLVESGGGLVQAGGSLRLSCAACGRTFQSNAMGWYRQAPGKERELVARITRRGGITYYADSVKGRFTISRDNAKNTVYLQMNSLKPEDTAVYYCNRYLYDSYRWAALQRTGYNSWGQGTQVTVSS” the “polyreactivity (PSR sort gate)” value was “high polyreactivity”.

In the case of “QVQLVESGGGLVQAGGSLRLSCAASGRIFGWYAMGWYRQAPGKERELVAAISSSGVSTNYADSVKGRFTISRDNAKNTVYLQMNSLKPEDTAVYYCIARGFYWYRPYVNSNGGYWGQGTQVTVSS”, the “polyreactivity (PSR sort gate)” value is reported as “high polyreactivity”.

With “QVQLVESGGGLVQAGGSLRLSCAASGGIFLFNAMGWYRQAPGKERELVAAITDGGSTYYADSVKGRFTISRDNAKNTVYLQMNSLIPDDTAVYYCNKDSSFWGYYIAQVNERDYWGQGTQVTVSS” the “polyreactivity (PSR sort gate)” value was “low polyreactivity”.

With “QVQLVESGGGLVQAGGSLRLSCADSGRTFWSNAMGWYRQAPGKERELVARIDSTYYADSVKGRFTISRDNAKNTVYLQMNSLKPEDTAVYYCNADTIYYAGDFRYDYWGQGTQVTVSS” the “polyreactivity (PSR sort gate)” value was “low polyreactivity”.

In the case of “QVQLVESGGGLVQAGGSLRLSCAASGSIFQPYGMGWYRQAPGKERELVASIRGSAGSTHYADSVKGRFTISRDNAKYTVYLQMNSLKPEDTAVDYCAARAVASHFSPSLYGYWGHGTQVTVSS”, the “polyreactivity (PSR sort gate)” value is reported as “high polyreactivity”.

In the case of “QVQLVDSGGGLVQAGGRLRLSCDASGLTLYKNGLGWYRLEPVKERELFAVISRSGGRTYYADSVKGRFTISRDNAKNTVYLQFNSLKPEETAVYYCAARGIGPTKYDYLGQGTQVTVSS”, the “polyreactivity (PSR sort gate)” value is reported as “high polyreactivity”.

In the case of “QVQLVESGGGLVQAGGSLRLSCAASGITFYFNTMGWYRQAPGKERELVASISGGSSTYYADSVKGRFTISRDNAKYTVYLQMNSLKPEDTAVYYCNAQGSLFRGWFDYDYWGQGTQVTVSS”, the “polyreactivity (PSR sort gate)” value is reported as “low polyreactivity”.

For “QVHLVESGGGLVQAGGSLRLSSPASGRIFYRKALGWSRQETGKERELVAAISSSGGSTYYADSVKGRFTISRDNAKNTVYLQMNSLKPEDTEVYYCNKAVWGRSKYDFCGQGTQVTVSS”, the “polyreactivity (PSR sort gate)” value was “high polyreactivity”.

In the case of “QVQLVESGGGLVQAGGSLRLSCAASGSTFHRYAKGSYRQAPGKERELVARIIGSGGSTYYADSVKGRFTISRDNAKNTVYLQMNSLKPEDTAVYYCAADGLYYTYGYDYWGQGTQVTVSS”, the “polyreactivity (PSR sort gate)” value is reported as “low polyreactivity”.

For “QVQLVESGGGLVQAGGSLRLSCAASGRTFYHNTIGGYRQQPGKERELVAVINDSGTRTYYADSVKGRFTISRDNAKNTVYLQMNSLKPEDTAVYYCAARSYVGGAILGYWGQGTQVTVSS”, the “polyreactivity (PSR sort gate)” value was “high polyreactivity”.

In the case of “QVQLVESGGGLVQAGGSLRLSCAASGSIFGDYVMGWYRQAPGKERELVAAITFGGGRTYYADSVKGRFTISRDNAKNTVYLQMNSLKPEDTAVYYCAVSRKGLGSVEYWGQGTQVTVSS”, the “polyreactivity (PSR sort gate)” value is reported as “low polyreactivity”.

For “QVQLVESGGGLVQAGGSLRLSCAASGSTFKPNAMGSYRQAPGKEREFVASITWSAGSTYYADSVKGRFTISRDNAKNTVYLQMNSLKPEDTAVYYCAARLRWAGISRYGYWGQGTQVTVSS”, the “polyreactivity (PSR sort gate)” value was “high polyreactivity”.

For “QVQLVESGGGLVQAGGSLRLSCAASGRIFFANTMGWYRQAPGKERELVAAISLSSGSTYYADSVKGRFTISRDNAKNTVYLQMNSLKPEDTAVYYCAARGYSHVASRLYYYWGQGTQVTVSS”, the “polyreactivity (PSR sort gate)” value was “high polyreactivity”.

For “QVQLVESGGCLVQAGGSLRLSCAASGITFRSYTMGWYRQAPGQESELVAAISYSAGSTYYADSVKGRFTISRDNAKNTVYLQMNSLKPEDTAVYYCAARPRLVVLVIRFYYWGQGTQVTVSS”, the “polyreactivity (PSR sort gate)” value was “high polyreactivity”.

For “QDQLEESGGGLVQAGGSLRLSCAASGSTFLVYAMGWYRQAPGKEREFVAAISWSGGSTFYADSVKGRFTISRDNAKNTVYLQMNSLKPEDTAVYYCAARQAGYSGRKLYYWGQGTQVTVSS”, the “polyreactivity (PSR sort gate)” value was “low polyreactivity”.

In the case of “QVQLVESGGGLVQAGGSLRLSCAASGSTFDTYAMGWSRPAPGKERELVAAITSGSSTNYADSVKGRFTISRDNAKNTVYLQMNSLKPEDTAVYYCAALGYNVSSRGYYYWGQGTQVTVSS”, the “polyreactivity (PSR sort gate)” value is reported as “low polyreactivity”.

For “QVQLVESGGGLVQAGGSLRLICAASGGIFYVNAMGWYRQAPGKERELVADIRYSGTSTYYADSVKGRFTISRDNAKNTVYLQMNSLKPEDTAVYYCAVDAWDTTLVYEQGAERDSWGQGTQVTVSS”, the “polyreactivity (PSR sort gate)” value was “low polyreactivity”.

With “QVQLVESGGGLVQAGGSLRLSCAASGRIFRGNAMGWYRQAPGKERELVAASTSSGDSTFYADSVKGRFTISRDNAKNTVYLQMNSLKPEDTAVYYCAANVRYQRTSGYYYWGQGTQVTVSS” the “polyreactivity (PSR sort gate)” value was “high polyreactivity”.

In the case of “QVQLVESGGGLVQAGGSLRLSCAASGSTIFFNAMGWYRQAPGKERELVAGISSSGGSTHYADSVKGRFTISRDNAKNTVYLQMNSLKPEDTAVYYCNAQQYLPSEGDYWGQGTQVTVSS”, the “polyreactivity (PSR sort gate)” value is reported as “low polyreactivity”.

With “QLQHVESRRGLVQAGGSLRLSCAASGLTFVGYAMGWYRQAPGKERELGAAISGVGTTNYADSVKGRFTISRDNAKNTVYFQMNSLKPEDSAVYYCAKAPYPVPYGLYDYWGQGTQVTVSS” the “polyreactivity (PSR sort gate)” value was “low polyreactivity”.

With “QVQLVESGGGLVQAAGSLRLSCAASGSTFDNKVMGWYRQAPGKERELVATITWGDGSTSYADSVKGRFTISRDIAKNTVYLELNSRKREDTAVYFCAAGEYYHRIFLWYVYWGQGTKVTVSS” the “polyreactivity (PSR sort gate)” value was “low polyreactivity”.

With “QVQLVESGGGLVQAGGSLRLSCAASGSIFLAYPMGWYRQAPGKEREFVAAISFSDGSTYYADSVKGRFTISRDNAKNTVYLQMNSLKPEDTAVYYCNKRASPDDYDYWGQGTQVTVSS” the “polyreactivity (PSR sort gate)” value was “low polyreactivity”.

In the case of “QVQLVESGGGLVQAGGSLRLSCAASGRIFLSYTMGWYRQAPGKERELVAAISRGGRTYYADSVKGRFTISRDNAKNTVYLQMNSLKPEDTAVYYCAKKYGRYGSLRGRTIDDYWGQGTQVTVSS”, the “polyreactivity (PSR sort gate)” value is reported as “low polyreactivity”.
